{"source": "paper PMC9365671", "key": {"[1]": {"target": "taxol-stabilised microtubules of porcine brain tubulin (porcine) (UniProt P02550)", "test": "single-molecule TIRF microscopy on microtubules; biotinylated taxol-stabilised MTs held on streptavidin-coated glass, motor in solution; 90 mM HEPES-KOH pH 7.6, 50 mM KCH3COO, 2 mM Mg(CH3COO)2, 1 mM EGTA, 10% glycerol, 2 mM ATP; landing rate = processive and non-processive events per MT length, time and motor concentration", "design": "landing rate: unit not given here"}, "[2]": {"target": "taxol-stabilised microtubules of porcine brain tubulin (porcine) (UniProt P02550)", "test": "single-molecule TIRF microscopy on microtubules; biotinylated taxol-stabilised MTs held on streptavidin-coated glass, motor in solution; 90 mM HEPES-KOH pH 7.6, 50 mM KCH3COO, 2 mM Mg(CH3COO)2, 1 mM EGTA, 10% glycerol, 2 mM ATP; landing rate = processive and non-processive events per MT length, time and motor concentration"}, "[3]": {"target": "KIF5C-KLC1 heterotetramer (human) (UniProt O60282)", "sequence (O60282 whole entry, chain 1 of 2)": "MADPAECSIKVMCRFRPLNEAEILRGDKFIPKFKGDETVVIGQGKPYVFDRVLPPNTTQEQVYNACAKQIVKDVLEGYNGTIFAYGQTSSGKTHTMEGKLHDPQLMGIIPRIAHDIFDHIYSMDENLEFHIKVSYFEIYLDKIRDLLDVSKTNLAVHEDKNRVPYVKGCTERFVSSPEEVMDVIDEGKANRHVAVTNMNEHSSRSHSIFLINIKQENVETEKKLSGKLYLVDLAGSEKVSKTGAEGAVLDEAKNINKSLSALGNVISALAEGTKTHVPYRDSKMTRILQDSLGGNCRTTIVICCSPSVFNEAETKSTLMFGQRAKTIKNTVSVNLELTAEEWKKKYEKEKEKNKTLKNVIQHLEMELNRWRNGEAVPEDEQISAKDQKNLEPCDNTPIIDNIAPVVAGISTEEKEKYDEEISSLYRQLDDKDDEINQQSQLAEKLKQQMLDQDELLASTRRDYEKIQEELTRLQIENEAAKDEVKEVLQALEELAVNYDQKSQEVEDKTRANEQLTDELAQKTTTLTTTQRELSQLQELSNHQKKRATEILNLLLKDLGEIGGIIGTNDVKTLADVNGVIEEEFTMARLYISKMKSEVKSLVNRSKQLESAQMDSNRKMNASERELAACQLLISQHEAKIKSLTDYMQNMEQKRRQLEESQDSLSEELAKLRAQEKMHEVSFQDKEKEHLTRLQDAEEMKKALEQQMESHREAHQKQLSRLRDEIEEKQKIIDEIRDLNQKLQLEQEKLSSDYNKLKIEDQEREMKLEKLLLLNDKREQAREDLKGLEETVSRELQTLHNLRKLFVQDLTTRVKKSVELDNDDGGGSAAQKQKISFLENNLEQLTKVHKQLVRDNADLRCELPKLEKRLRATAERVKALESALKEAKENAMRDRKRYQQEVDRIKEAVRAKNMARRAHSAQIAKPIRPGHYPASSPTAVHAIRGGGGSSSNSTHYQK", "sequence (Q07866 whole entry, chain 2 of 2, further chain)": "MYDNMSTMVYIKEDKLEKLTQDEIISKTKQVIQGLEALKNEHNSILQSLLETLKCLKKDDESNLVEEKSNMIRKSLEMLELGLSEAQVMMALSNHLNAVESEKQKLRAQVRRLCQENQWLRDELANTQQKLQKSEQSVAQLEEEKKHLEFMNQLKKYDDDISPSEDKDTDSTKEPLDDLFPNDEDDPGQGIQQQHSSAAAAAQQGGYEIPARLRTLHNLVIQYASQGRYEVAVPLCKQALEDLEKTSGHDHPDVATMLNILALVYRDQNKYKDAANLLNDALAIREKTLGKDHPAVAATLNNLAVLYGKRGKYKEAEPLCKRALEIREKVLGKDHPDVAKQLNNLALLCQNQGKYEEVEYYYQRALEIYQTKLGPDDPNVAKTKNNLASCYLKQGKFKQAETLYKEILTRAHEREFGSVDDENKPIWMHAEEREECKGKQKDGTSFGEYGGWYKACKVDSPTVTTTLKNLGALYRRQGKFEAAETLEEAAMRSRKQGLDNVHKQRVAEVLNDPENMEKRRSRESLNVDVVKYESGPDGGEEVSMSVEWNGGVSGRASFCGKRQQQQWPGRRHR"}}, "note": "Like-named read-outs stand apart in the source and are kept apart here."}
{"substance": "KIF5C-KLC1 heterotetramer (from UniProt O60282 1-957; Q07866 1-573) (complex)", "values": [{"measurement": "landing rate", "setting": "[1]", "value": 0.06}]}
{"substance": "KIF5A-KLC1 heterotetramer (from UniProt Q12840 1-1032; Q07866 1-573) (complex)", "values": [{"measurement": "landing rate", "setting": "[1]", "value": 0.1}]}
{"substance": "tail-truncated human KIF5B (aa 1-420)-mScarlet-StrepII (from UniProt P33176 1-420) (domain or fragment)", "values": [{"measurement": "landing rate (motors/µm/s/µM)", "setting": "[1]", "value": 146}]}
{"substance": "KIF5B-H129A-mScarlet-StrepII (from UniProt P33176 1-963) (natural protein)", "values": [{"measurement": "landing rate", "setting": "[2]", "value": "5.4 /μm/s/μM"}]}
{"substance": "full-length human KIF5B-mScarlet-StrepII (from UniProt P33176 1-963) (natural protein)", "values": [{"measurement": "landing rate (Motors/μm/s/μm)", "setting": "[1]", "value": 0.08}]}
{"substance": "KIF5B-KLC1 heterotetramer (from UniProt P33176 1-963; Q07866 1-573) (complex)", "values": [{"measurement": "landing rate (Motors/μm/s/μm)", "setting": "[1]", "value": 0.06}]}
{"substance": "tail-truncated human KIF5A (aa 1-416)-mScarlet-StrepII (from UniProt Q12840 1-416) (domain or fragment)", "values": [{"measurement": "landing rate (motors/µm/s/µM)", "setting": "[1]", "value": 162}]}
{"substance": "KIF5B-Δhinge (Δ505-610)-mScarlet-StrepII (from UniProt P33176 1-963) (natural protein)", "values": [{"measurement": "landing rate", "setting": "[2]", "value": "22.8 /μm/s/μM"}]}
{"substance": "6xHis-2xStrepII-sfGFP-nesprin-4 (aa 1-240) WD/AA (from UniProt Q8N205-2 1-240) (domain or fragment)", "values": [{"measurement": "landing rate of 10 nM KIF5C-KLC1 on MTs (ATP) with 500 nM nesprin-4 WDAA (0.1 without)", "setting": "[3]", "value": "0.2 /μm/s/μM"}]}
{"substance": "KIF5B-IAK/AAA-mScarlet-StrepII (from UniProt P33176 1-963) (natural protein)", "values": [{"measurement": "landing rate", "setting": "[2]", "value": "7 /μm/s/μM"}]}
{"substance": "tail-truncated human KIF5C (aa 1-416)-mScarlet-StrepII (from UniProt O60282 1-416) (domain or fragment)", "values": [{"measurement": "landing rate (motors/µm/s/µM)", "setting": "[1]", "value": 147}]}
{"substance": "KIF5B-E178A-mScarlet-StrepII (from UniProt P33176 1-963) (natural protein)", "values": [{"measurement": "landing rate", "setting": "[2]", "value": "6.2 /μm/s/μM"}]}
